Source: article PMC8059062 (The Journal of Biological Chemistry, 2021)
Ends that are not written are not given here.

Legend:
[1] = molecular target: T1, calmodulin, wild type, full-length (aa 1-148) (human, UniProt P0DP23 1-149); experiment: other fluorescence titration; YFP-CFP FRET biosensor (>=1 nM) with Ca2+-saturated WT or mutant CaM, emission spectra and equilibrium titrations; 50 mM HEPES, 100 mM KCl, 1 mM MgCl2, 50 uM EGTA, 5 mM NTA, 1.5 uM BSA, 500 uM DTT, 1 mM CaCl2, pH 7.4, 22 C
T1 construct: human calmodulin, full-length, aa 1-148; numbers count on: the protein without the initial Met (UniProt numbers are one higher); Ca2+-saturated ((Ca2+)4-CaM) and Ca2+-depleted (apo) states are the same molecule; the state is told by the assay; 15N-labelled in some NMR samples; also called CaM; WT CaM; source: bacterially overexpressed (pT7-7 vector) and purified; also bacterially coexpressed with …

[2] = molecular target: T1, calmodulin, wild type, full-length (aa …); experiment: NMR 15N-HSQC chemical shift comparison; copurified 1:1 complexes, one partner 15N-labelled (290-600 uM), compared with isolated (Ca2+)2-CaMN and (Ca2+)2-CaMC and with each other; 50 mM HEPES, 100 mM KCl, 1 mM MgCl2, 50 uM EGTA, 5 mM NTA, 10 mM CaCl2, pH 7.4, 25 C; conditions: both partners purified
[3] = molecular target: T1, calmodulin, wild type, full-length (aa …); experiment: not stated; (Ca2+)4-CaM binding to NaV IQ motifs; data not shown
[4] = molecular target: T2, full-length FGF12A (aa 1-243) (human, UniProt P61328-1 1-243); experiment: co-purification after refolding; denatured His-GST-FGF12A refolded by rapid dilution at 4 C into buffer with CaM+NaV1.2CTD (0.2 uM); tag cleaved, nickel resin repass, anion exchange (pH 8.5-7.4, KCl 0-300 mM) removes CaM; conditions: both partners purified
T2 construct: four nonnative residues left at the N terminus after removal of the His-GST tag with 3C protease; human FGF12A (A-type splice variant of FGF12), full-length, aa 1-243; Obtained only as the FGF12A+NaV1.2CTD complex; not shown: His-GST, N-terminal, cleaved
T2 sequence: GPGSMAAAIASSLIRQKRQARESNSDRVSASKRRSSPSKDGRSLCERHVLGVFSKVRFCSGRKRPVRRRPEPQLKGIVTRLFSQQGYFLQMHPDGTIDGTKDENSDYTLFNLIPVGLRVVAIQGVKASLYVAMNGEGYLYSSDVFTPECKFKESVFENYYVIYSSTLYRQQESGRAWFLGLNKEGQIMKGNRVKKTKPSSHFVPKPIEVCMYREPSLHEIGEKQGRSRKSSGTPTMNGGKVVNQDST

KSLCQKQLLILLSKVRLCGGRPARPDR (domain or fragment, cysteine pairing not given here; also: fused between YFP and CFP, source: expressed from a pET21B vector) [FGF11A_(CaMBD) biosensor (FGF11A CaMBD, residues 36-62, between YFP and CFP)]
Kd [1]: 19 nM

RSLCERHVLGVFSKVRFCSGRKRPVRR (domain or fragment, cysteine pairing not given here; also: fused between YFP and CFP, source: expressed from a pET21B vector) [FGF12A_(CaMBD) biosensor (FGF12A CaMBD, residues 38-64, between YFP and CFP)]
Kd [1]: 107 nM

B1: FGF12ANTD (FGF12A N-terminal domain, aa 1-70) (domain or fragment)
chain: GPGSMAAAIASSLIRQKRQARESNSDRVSASKRRSSPSKDGRSLCERHVLGVFSKVRFCSGRKRPVRRRPEPQL
notes: four nonnative residues left at the N terminus after removal of the His-GST tag with 3C protease; human FGF12A N-terminal domain, aa 1-70, contains LTP and CaMBD; 15N-labelled in some NMR samples; source: bacterial coexpression with CaM, copurified; not shown: His-GST, N-terminal, cleaved
binding result [2]: binds

KTSCDKNKLNVFSRVKLFGSKKRRRR (domain or fragment, also: fused between YFP and CFP, source: expressed from a pET21B vector) [FGF13A_(CaMBD) biosensor (FGF13A CaMBD, residues 35-60, between YFP and CFP)]
Kd [1]: 13 nM

MAAAIASSLIRQKRQARESNSDR (domain or fragment, source: expressed from a pET21B vector) [FGF12ALTP biosensor (FGF12A LTP, residues 1-23, between YFP and CFP)]
Kd [1]: 576 nM

B2: NaV1.2 IQ motif (domain or fragment)
chain: EEVSAIIIQRAYRRYLLKQKVKKVSSIYKK
notes: IQ motif of NaV1.2; also called IQ motif of NaV1.2
Kd [3]: 19.8 nM

B3: NaV1.2CTD (fragment of the NaV1.2 C-terminal domain, residues 1777-1937, with EFL and IQ motif) (domain or fragment, human)
chain: GPGSENFSVATEESAEPLSEDDFEMFYEVWEKFDPDATQFIEFAKLSDFADALDPPLLIAKPNKVQLIAMDLPMVSGDRIHCLDILFAFTKRVLGESGEMDALRIQMEERFMASNPSKVSYEPITTTLKRKQEEVSAIIIQRAYRRYLLKQKVKKVSSIYKKDKG
notes: four nonnative residues left at the N terminus after removal of the His-GST tag with 3C protease; human NaV1.2 (SCN2A) C-terminal domain fragment, aa 1777-1937, contains the EF-hand like domain and the IQ motif; source: bacterial coexpression with CaM, copurified; not shown: His-GST, N-terminal, cleaved
binding result [4]: binds
